Results from PMC5206904 (DNA repair, 2015).

Target: T1, recombinant ALKBH2 with a streptavidin binding peptide tag (human, UniProt Q6NS38 1-261)
T1 sequence (looked up): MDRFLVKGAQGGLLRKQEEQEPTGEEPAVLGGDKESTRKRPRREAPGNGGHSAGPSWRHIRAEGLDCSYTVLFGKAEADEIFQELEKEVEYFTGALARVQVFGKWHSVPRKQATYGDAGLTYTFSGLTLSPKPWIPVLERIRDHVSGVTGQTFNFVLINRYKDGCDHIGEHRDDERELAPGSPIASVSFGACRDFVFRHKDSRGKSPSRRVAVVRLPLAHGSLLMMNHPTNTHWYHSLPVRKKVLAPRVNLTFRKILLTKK
Assay: pull-down

binding result: binds
B1: recombinant PCNA mutant VDK188 (natural protein, UniProt P12004 1-261, looked up)
chain: MFEARLVQGSILKKVLEALKDLINEACWDISSSGVNLQSMDSSHVSLVQLTLRSEGFDTYRCDRNLAMGVNLTSMSKILKCAGNEDIITLRAEDNADTLALVFEAPNQEKVSDYEMKLMDLDVEQLGIPEQEYSCVVKMPSGEFARICRDLSHIGDAVVISCAKDGVKFSASGELGNGNIKLSQTSNAAAEEEAVTIEMNEPVQLTFALRYLNFFTKATPLSSTVTLSMSADVPLVVEYKIADMGHLKYYLAPKIEDEEGS
